From paper PMC3150435 (Nature structural & molecular biology, 2011)

Columns and labels:
[1] = target: Plasmodium vivax Duffy-Binding Protein region II (RII-PvDBP), amino acids 211-525 (Plasmodium vivax) (UniProt P22290); assay: AUC
[2] = target: Plasmodium vivax Duffy-Binding Protein region II (RII-PvDBP), amino acids 211-525 (Plasmodium vivax, UniProt P22290 211-525); assay: ITC
Sequence of Plasmodium vivax Duffy-Binding Protein region II (RII-PvDBP), amino acids 211-525 (P22290 211-525): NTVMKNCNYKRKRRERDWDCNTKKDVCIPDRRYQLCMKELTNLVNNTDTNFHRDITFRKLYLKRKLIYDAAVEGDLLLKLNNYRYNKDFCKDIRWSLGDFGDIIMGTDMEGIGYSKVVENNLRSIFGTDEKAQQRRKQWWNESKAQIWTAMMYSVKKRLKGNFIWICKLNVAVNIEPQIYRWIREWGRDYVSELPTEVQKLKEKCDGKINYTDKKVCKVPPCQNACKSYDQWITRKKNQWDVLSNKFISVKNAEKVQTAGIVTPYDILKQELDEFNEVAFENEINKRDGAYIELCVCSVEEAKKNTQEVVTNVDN

Row | Molecule | stoichiometry N [1] | stoichiometry N [2]
1 | Plasmodium vivax Duffy-Binding Protein region II (RII-PvDBP), amino acids 211-525 (from UniProt P22290 211-525) (domain or fragment) | 2 | 
2 | DARC1-60 (N-terminal 60 amino acids of Duffy Antigen/Receptor for Chemokines) with C4A, C51A and C54A, unsulfated (domain or fragment, UniProt Q16570 1-60, looked up) MGNALHRAELSPSTENSSQLDFEDVWNSSYGVNDSFPDGDYGANLEAAAPAHSANLLDDS |  | 1
